The source of these data is publication doi:10.1101/2025.09.09.675230.

For orientation: stoichiometry N means the number of molecules, sites or subunits per partner or assembly.

For this assay, the target named is Measles virus fusion protein (F) ectodomain, prefusion-stabilized with E170G and E455G (FECT 2M) (Measles virus strain Ichinose-B95a). As to the kind of experiment: cryo-EM structure.

As for “Measles virus fusion protein (F) ectodomain, prefusion-stabilized with E170G and E455G (FECT 2M) (domain or fragment)”, the stoichiometry N turned out to be 3.
